Measurements published in patent US20230398229A1, “ANTIBODY DRUG […] AGONISTS, COMBINATIONS AND METHODS OF USE” (Mersana Therapeutics, Inc., priority 2022, published 2023).

Key:
rat HER2 = rat HER2 (Rattus norvegicus, UniProt P06494); experiment: Binding of antibody to rat HER2
HER2 = HER2 (Homo sapiens, UniProt P04626); experiment: Inhibition of HER2 functional activity in vitro

Sequence of rat HER2 (P06494 23-1257): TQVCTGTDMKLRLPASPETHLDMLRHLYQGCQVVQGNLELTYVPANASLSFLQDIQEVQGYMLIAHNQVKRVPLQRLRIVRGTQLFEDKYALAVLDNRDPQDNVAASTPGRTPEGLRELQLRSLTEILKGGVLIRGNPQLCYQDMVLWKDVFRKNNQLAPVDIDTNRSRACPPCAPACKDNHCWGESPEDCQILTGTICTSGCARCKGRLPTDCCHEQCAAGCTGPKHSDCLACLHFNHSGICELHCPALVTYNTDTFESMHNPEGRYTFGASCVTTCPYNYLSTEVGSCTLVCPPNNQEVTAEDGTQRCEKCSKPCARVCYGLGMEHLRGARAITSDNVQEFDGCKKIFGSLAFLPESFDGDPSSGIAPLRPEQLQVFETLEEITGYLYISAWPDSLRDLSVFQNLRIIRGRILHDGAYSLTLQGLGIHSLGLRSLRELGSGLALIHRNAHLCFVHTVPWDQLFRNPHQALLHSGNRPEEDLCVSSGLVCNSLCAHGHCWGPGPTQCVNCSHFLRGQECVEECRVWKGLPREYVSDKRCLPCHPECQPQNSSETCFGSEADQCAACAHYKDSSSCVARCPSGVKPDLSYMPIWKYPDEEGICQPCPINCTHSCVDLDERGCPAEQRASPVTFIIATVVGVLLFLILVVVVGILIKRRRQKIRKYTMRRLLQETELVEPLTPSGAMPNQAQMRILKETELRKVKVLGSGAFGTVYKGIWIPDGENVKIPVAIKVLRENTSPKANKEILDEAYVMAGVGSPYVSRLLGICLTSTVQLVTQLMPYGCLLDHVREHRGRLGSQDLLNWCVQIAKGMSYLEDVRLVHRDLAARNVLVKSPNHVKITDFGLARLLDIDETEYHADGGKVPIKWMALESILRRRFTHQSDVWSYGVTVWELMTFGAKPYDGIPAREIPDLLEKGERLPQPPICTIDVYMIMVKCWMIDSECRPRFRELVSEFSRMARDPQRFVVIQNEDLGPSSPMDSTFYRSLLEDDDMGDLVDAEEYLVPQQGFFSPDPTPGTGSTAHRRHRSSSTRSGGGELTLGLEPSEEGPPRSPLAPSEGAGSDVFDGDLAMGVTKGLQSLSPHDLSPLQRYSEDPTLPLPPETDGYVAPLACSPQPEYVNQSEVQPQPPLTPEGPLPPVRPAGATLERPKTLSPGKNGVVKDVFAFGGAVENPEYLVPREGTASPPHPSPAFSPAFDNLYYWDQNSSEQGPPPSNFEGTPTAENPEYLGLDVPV

With “XMT-1519: anti-Her2 antibody disclosed in U.S. Pat. No. 9,555,112 and 9,738,720” the “Binding to rat HER2” value (rat HER2) was “does not bind” and the “Functional activity of HER2” value (HER2) was “inhibit the functional activity of HER2”.
